In article PMC5008011, “The sclerostin-neutralizing antibody AbD09097 recognizes an epitope adjacent to sclerostin's binding site for the Wnt co-receptor LRP6” (Open Biology, 2016):

T1: 14mer peptide PARLLPNAIGRGKW, equivalent to residues Pro86 to Trp99 of sclerostin loop 2 (Homo sapiens)
T1 construct: loop 2 of sclerostin; also called first peptide; base peptide; source: synthetic peptide, synthesized on solid support (array)
T1 chain: PARLLPNAIGRGKW

T2: 14mer peptide NAIGRGKWWRPSGP, equivalent to residues Asn92 to Pro105 of sclerostin loop 2 (Homo sapiens)
T2 construct: loop 2 of sclerostin; also called second peptide; source: synthetic peptide, synthesized on solid support (array)
T2 chain: NAIGRGKWWRPSGP

T3: 14mer peptide PARLLPNAIGRGKW (Homo sapiens)
T3 construct: stretch of loop 2 of sclerostin; also called base peptide; loop 2 mimicking peptide; source: synthetic peptide, on solid support (peptide array)
T3 chain: PARLLPNAIGRGKW


Legend:
[1] = target: T1, 14mer peptide PARLLPNAIGRGKW, …; assay: peptide or protein array; truncation array: all truncated variants (3 to 14mer) of two 14mer loop 2 peptides synthesized on solid support; Fab added, modified ELISA with goat anti-human peroxidase coupled secondary antibody; conditions: both partners purified
[2] = target: T2, 14mer peptide NAIGRGKWWRPSGP, …; assay: as above; conditions: both partners purified
[3] = target: T4, murine sclerostin (Mus musculus, UniProt Q99P68); assay: ELISA; plates coated with 5 µg/ml protein in PBS; Fab at 2 µg/ml, 1 h at room temperature; detection with anti-human Fab-alkaline phosphatase and AttoPhos; signal/noise over the background of BSA, N1-CD33-His6 and GST; conditions: both partners purified
T4 construct: sclerostin, murine; The ELISA may have used the Sf9-made antigen instead; also called mScl
T4 sequence (Q99P68 24-211): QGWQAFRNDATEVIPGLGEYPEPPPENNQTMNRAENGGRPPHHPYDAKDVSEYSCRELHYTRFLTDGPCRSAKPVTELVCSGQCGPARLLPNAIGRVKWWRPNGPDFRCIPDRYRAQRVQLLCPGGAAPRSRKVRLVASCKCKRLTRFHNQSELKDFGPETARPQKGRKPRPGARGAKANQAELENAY

[4] = target: T5, human sclerostin (Homo sapiens, UniProt Q9BQB4); assay: as above; conditions: both partners purified
T5 construct: sclerostin, human; The ELISA may have used the Sf9-made antigen instead; also called hScl
T5 sequence (Q9BQB4 24-213): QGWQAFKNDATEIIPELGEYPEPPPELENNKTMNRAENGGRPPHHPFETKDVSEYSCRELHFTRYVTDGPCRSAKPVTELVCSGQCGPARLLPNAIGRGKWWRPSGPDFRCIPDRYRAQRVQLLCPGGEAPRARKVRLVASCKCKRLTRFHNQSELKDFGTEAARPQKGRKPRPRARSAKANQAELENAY

[5] = target: T4, murine sclerostin; assay: SPR; ProteOn, 25°C, HBS150T (10 mM HEPES, 150 mM NaCl, pH 7.5, 0.005% Tween 20); sclerostin proteins or variants amine-coupled to about 600 RU on a GLC chip; Fabs as analytes at 100, 75, 50, 25, 12.5 and 6.25 nM (one-shot kinetics); 1:1 Langmuir model; conditions: both partners purified
[6] = target: T5, human sclerostin; assay: as above; conditions: both partners purified
[7] = target: T4, murine sclerostin; assay: cell-based or functional assay
[8] = target: T5, human sclerostin; assay: cell-based or functional assay
[9] = target: T4, murine sclerostin; assay: cell-based or functional assay; remark: listed apart in the source
[10] = target: T5, human sclerostin; assay: cell-based or functional assay; remark: listed apart in the source
[11] = target: T3, 14mer peptide PARLLPNAIGRGKW; assay: peptide or protein array; peptides synthesised on solid support (overlapping, replacement and truncation libraries); Fab detected by a modified ELISA with goat anti-human peroxidase-coupled secondary antibody; conditions: both partners purified
[12] = target: T4, murine sclerostin; assay: SPR; ProteOn, 25°C, HBS150T (10 mM HEPES, 150 mM NaCl, pH 7.5, 0.005% Tween 20); sclerostin proteins or variants amine-coupled to about 600 RU on a GLC chip; Fabs as analytes at 100, 75, 50, 25, 12.5 and 6.25 nM (one-shot kinetics); 1:1 Langmuir model; conditions: both partners purified; remark: listed apart in the source
[13] = target: T5, human sclerostin; assay: as above; conditions: both partners purified; remark: listed apart in the source

Binder | binding result [1] | ELISA signal/noise ratio (fold background) [3] | ELISA signal/noise ratio (fold background) [4] | Kd [5] | koff [5] | kon [5] | Kd [6] | koff [6] | kon [6] | binding result [11] | other results
Fab AbD09097 (Fab, V domains shown, also called ancestor Fab; source: E. coli, periplasmic expression, purified by the hexahistidine-tag) VH: QVQLVESGGGLVQPGGSLRLSCAASGFTFTNYYMHWVRQAPGKGLEWVSTIAYDGSSTYYADSVKGRFTISRDNSKNTLYLQMNSLRAEDTAVYYCARWFTDDIWGQGTLVTVSS VL: not shown | binds |  |  |  |  |  |  |  |  |  | binding result [2]: binds
Fab AbD12682 (Fab, V domains shown, as the light chain of Dm1 up to the Cys before CDR3L; as the light chain of Dm1 from Thr97 (Kabat) to the end; heavy chain extension as in Dm1; source: E. coli, periplasmic expression, purified by the hexahistidine-tag) VH: QVQLVESGGGLVQPGGSLRLSCAASGFTFTNYYMHWVRQAPGKGLEWVSTIAYDGSSTYYADSVKGRFTISRDNSKNTLYLQMNSLRAEDTAVYYCARWFTDDIWGQGTLVTVSS VL: not shown | binds |  |  |  |  |  |  |  |  |  | 
Fab AbD12681 (Fab, V domains shown, consensus motif -QQDXXFPI- (X: His, Glu, Val or Ser); source: E. coli, periplasmic expression, purified via hexahistidine-tag) VH: QVQLVESGGGLVQPGGSLRLSCAASGFTFTNYYMHWVRQAPGKGLEWVSTIAYDGSSTYYADSVKGRFTISRDNSKNTLYLQMNSLRAEDTAVYYCARWFTDDIWGQGTLVTVSS VL: DIVLTQSPATLSLSPGERATLSCRASQSISSNELAWYQQKPGQAPRLLIYDTSNRATGVPARFSGSGSGTDFTLTISSLEPEDFAVYYCQQDHEFPITFGQGTKVEIK |  | 26 fold background | 44 fold background | 35 nM | 0.00054 s⁻¹ | 17000 M⁻¹ s⁻¹ | 66 nM | 0.0016 s⁻¹ | 27400 M⁻¹ s⁻¹ |  | 
Fab AbD12684 (Fab, V domains shown, consensus motif -QQDXXFPI- (X: His, Glu, Val or Ser); source: E. coli, periplasmic expression, purified via hexahistidine-tag) VH: QVQLVESGGGLVQPGGSLRLSCAASGFTFTNYYMHWVRQAPGKGLEWVSTIAYDGSSTYYADSVKGRFTISRDNSKNTLYLQMNSLRAEDTAVYYCARWFTDDIWGQGTLVTVSS VL: not shown |  | 53 fold background | 73 fold background | 15 nM | 0.00025 s⁻¹ | 18400 M⁻¹ s⁻¹ | 32 nM | 0.00073 s⁻¹ | 25300 M⁻¹ s⁻¹ |  | 
Fab AbD09097 (Fab, V domains shown, format Fab-Thr-MH with a thrombin site (-FLVPRGS-) between CH1 and the tags; kappa light chain; From the HuCAL GOLD phage library, panned on murine sclerostin; also called ancestor Fab AbD09097; HCA230Z (as full-length IgG, AbD Serotec); source: E. coli, periplasmic expression, purified via hexahistidine-tag) VH: QVQLVESGGGLVQPGGSLRLSCAASGFTFTNYYMHWVRQAPGKGLEWVSTIAYDGSSTYYADSVKGRFTISRDNSKNTLYLQMNSLRAEDTAVYYCARWFTDDIWGQGTLVTVSS VL: not shown |  | 39 fold background | 34 fold background |  |  |  |  |  |  | binds | Wnt1 reporter gene assay with 20 nM murine sclerostin and 0-670 nM AbD09097: EC50 of the rescue of Wnt1 activity [7]: 46 nM; Wnt1 reporter gene assay with 20 nM human sclerostin and 0-670 nM AbD09097: EC50 of the rescue of Wnt1 activity [8]: 197 nM; Wnt1 reporter gene assay (HEK293TSA M50, luciferase): fold change of the IC50 of murine sclerostin for inhibition of Wnt1 activity with 500 nM Fab; the blocked pair is sclerostin and LRP5/6 [9]: 12.6 fold; Wnt1 reporter gene assay (HEK293TSA M50, luciferase): fold change of the IC50 of human sclerostin for inhibition of Wnt1 activity with 500 nM Fab; the blocked pair is sclerostin and LRP5/6 [10]: 6.4 fold; Kd [12]: 46 nM; koff [12]: 0.00018 s⁻¹; kon [12]: 4400 M⁻¹ s⁻¹; Kd [13]: 260 nM; koff [13]: 0.0016 s⁻¹; kon [13]: 6600 M⁻¹ s⁻¹
Fab AbD12683 (Fab, V domains shown, as the light chain of Dm1 up to the Cys before CDR3L; as the light chain of Dm1 from Thr97 (Kabat) to the end; heavy chain extension as in Dm1; source: E. coli, periplasmic expression, purified by the hexahistidine-tag) VH: QVQLVESGGGLVQPGGSLRLSCAASGFTFTNYYMHWVRQAPGKGLEWVSTIAYDGSSTYYADSVKGRFTISRDNSKNTLYLQMNSLRAEDTAVYYCARWFTDDIWGQGTLVTVSS VL: not shown | binds |  |  |  |  |  |  |  |  |  | 
Fab AbD12687 (Fab, V domains shown, source: E. coli, periplasmic expression, purified via hexahistidine-tag) VH: QVQLVESGGGLVQPGGSLRLSCAASGFTFTNYYMHWVRQAPGKGLEWVSTIAYDGSSTYYADSVKGRFTISRDNSKNTLYLQMNSLRAEDTAVYYCARWFTDDIWGQGTLVTVSS VL: DIVLTQSPATLSLSPGERATLSCRASQSISSNELAWYQQKPGQAPRLLIYDTSNRATGVPARFSGSGSGTDFTLTISSLEPEDFAVYYCQQDVVMPITFGQGTKVEIK |  | 50 fold background | 57 fold background | 120 nM | 0.0017 s⁻¹ | 16000 M⁻¹ s⁻¹ | 228 nM | 0.0047 s⁻¹ | 23300 M⁻¹ s⁻¹ |  | 
Fab AbD12683 (Fab, V domains shown, carries a tyrosine at position 3 of CDR3L; source: E. coli, periplasmic expression, purified via hexahistidine-tag) VH: QVQLVESGGGLVQPGGSLRLSCAASGFTFTNYYMHWVRQAPGKGLEWVSTIAYDGSSTYYADSVKGRFTISRDNSKNTLYLQMNSLRAEDTAVYYCARWFTDDIWGQGTLVTVSS VL: not shown |  | 28 fold background | 64 fold background | < 1 nM | < 1e-06 s⁻¹ | 3400 M⁻¹ s⁻¹ | 53 nM | 0.00033 s⁻¹ | 6400 M⁻¹ s⁻¹ | binds | 
Fab AbD12685 (Fab, V domains shown, source: E. coli, periplasmic expression, purified via hexahistidine-tag) VH: QVQLVESGGGLVQPGGSLRLSCAASGFTFTNYYMHWVRQAPGKGLEWVSTIAYDGSSTYYADSVKGRFTISRDNSKNTLYLQMNSLRAEDTAVYYCARWFTDDIWGQGTLVTVSS VL: DIVLTQSPATLSLSPGERATLSCRASQSISSNELAWYQQKPGQAPRLLIYDTSNRATGVPARFSGSGSGTDFTLTISSLEPEDFAVYYCQQDYTFPLTFGQGTKVEIK |  | 46 fold background | 61 fold background | 145 nM | 0.00029 s⁻¹ | 13000 M⁻¹ s⁻¹ | 56 nM | 0.001 s⁻¹ | 20400 M⁻¹ s⁻¹ |  | 
Fab AbD12682 (Fab, V domains shown, consensus motif -QQDXXFPI- (X: His, Glu, Val or Ser); source: E. coli, periplasmic expression, purified via hexahistidine-tag) VH: QVQLVESGGGLVQPGGSLRLSCAASGFTFTNYYMHWVRQAPGKGLEWVSTIAYDGSSTYYADSVKGRFTISRDNSKNTLYLQMNSLRAEDTAVYYCARWFTDDIWGQGTLVTVSS VL: not shown |  | 44 fold background | 57 fold background | 13 nM | 0.00025 s⁻¹ | 22000 M⁻¹ s⁻¹ | 23 nM | 0.00066 s⁻¹ | 32000 M⁻¹ s⁻¹ | binds | 
